Where no end group is shown, it is not given here.
Tests used:
prostasin [1] = biological target: T1, prostasin (Homo sapiens, UniProt Q16651); experiment: Enzyme inhibition assay (amidolytic activity of prostasin towards S2765); type: biochemical; parameters: made in house; host or cells: CHO cells (transient transfection, pRK5E); purified from conditioned medium on aprotinin-agarose; conditions: for inhibition of prostasin enzymatic activity (in words): substrate S2765
Method: The increase in absorbance at 405 nm was monitored on a kinetic microplate reader (Molecular Devices, Sunnyvale, Calif.). The linear rates of the increase in absorbance were expressed as percentage activities (100%×vi/v0). […] At least three independent experiments were performed for each inhibitor.
Target sequence in this assay (Q16651 45-322 limits assumed, other chains not shown): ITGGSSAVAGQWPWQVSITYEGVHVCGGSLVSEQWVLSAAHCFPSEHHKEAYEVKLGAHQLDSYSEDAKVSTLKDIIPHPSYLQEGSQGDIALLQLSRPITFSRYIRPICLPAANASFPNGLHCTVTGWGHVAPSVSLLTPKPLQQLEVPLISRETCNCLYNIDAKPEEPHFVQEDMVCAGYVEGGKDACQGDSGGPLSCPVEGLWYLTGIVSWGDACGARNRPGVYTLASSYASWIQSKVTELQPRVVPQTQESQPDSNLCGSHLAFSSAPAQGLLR

prostasin [2] = biological target: T1, prostasin; conditions: purified enzyme system; cited from earlier work
Target sequence in this assay (Q16651 33-343, species assumed): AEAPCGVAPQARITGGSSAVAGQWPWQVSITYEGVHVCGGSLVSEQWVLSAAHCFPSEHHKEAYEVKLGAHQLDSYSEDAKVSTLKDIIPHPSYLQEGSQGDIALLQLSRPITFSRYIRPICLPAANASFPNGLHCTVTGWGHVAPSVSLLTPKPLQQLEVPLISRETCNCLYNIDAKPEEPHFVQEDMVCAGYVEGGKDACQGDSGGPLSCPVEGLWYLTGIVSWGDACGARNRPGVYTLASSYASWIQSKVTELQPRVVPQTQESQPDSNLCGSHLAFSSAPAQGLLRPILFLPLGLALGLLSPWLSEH

prostasin [3] = biological target: T1, prostasin; experiment: Prostasin binding assay (complex formation, immunoblotting); parameters: made in house; host or cells: CHO cells (transient transfection, pRK5E); purified from conditioned medium on aprotinin-agarose; conditions: 20 nM sHAI-1B, 37° C., 0.5 or 2 h, immunoblot with anti-HAI-1B polyclonal antibody
Method: Prostasin binding assay—Purified prostasin and sHAI-1B were diluted in 20 mM Tris-Cl, pH 9.0 containing 0.01% Triton X-100 (TT buffer) to the final concentration as indicated. The mixture was incubated at 37° C. for 0.5 h or 2 h and the reaction was stopped by addition of SDS sample buffer with DTT. 30 μl of each sample was analyzed by immunoblotting.
Prostasin and sHAI-1B form 1:1 complexes—Soluble prostasin was purified from conditioned medium of CHO cells transiently transfected with full-length prostasin. […] Prostasin was incubated with sHAI-1B comprising the entire extracellular domain of HAI-1B (Kirchhofer, Peek et al. 2003) at different molar ratios (FIG.2A). Increasing concentrations of prostasin shifted the sHAI-1B band (55 kDa) to the higher molecular mass species of 85 kDa, indicating the formation of prostasin:sHAI-1B complexes. At a 10-fold molar excess of prostasin, almost all sHAI-1B was bound to prostasin. Immunoblotting with anti-prostasin antibody confirmed that the 85 kDa band comprised complexes of sHAI-1B and prostasin (data not shown).
Target sequence in this assay (Q16651 45-322 limits assumed, other chains not shown): as the sequence (Q16651 45-322 limits assumed, other chains not shown) above

IC50 (prostasin [1]; prostasin 3 nM, substrate S2765 0.05 mM, TT buffer, 20 min preincubation at room temperature, averages ± S.D. of at least three independent experiments, read-out: IC50 (nM), effects of inhibitors on the activity of prostasin)	fold less potent than wildtype sHAI-1B (prostasin [1]; IC50 compared with wildtype sHAI-1B)	Molecule	inhibition of prostasin enzymatic activity (in words) (prostasin [1]; prostasin 3 nM)	inhibition of prostasin activity (in words) (prostasin [2])	complex formation with prostasin (prostasin [3])
> 1000 nM	–	APPI: Alzheimer's amyloid β protein precursor inhibitor, a Kunitz domain (VREVCSEQAETGPCRAMISRWYFDVTEGKCAPFFYGGCGGNRNNFDTEEYCMAVCGSA; ends and bridges not checked; cysteine pairing not given here) [reference compound]	did not inhibit prostasin	–	–
–	–	HAI-2: hepatocyte growth factor activator inhibitor-2, a bi-Kunitz type serine protease inhibitor (protein, UniProt O43291 28-252, looked up) Kunitz-type protease …: ADRERSIHDFCLVSKVVGRCRASMPRWWYNVTDGSCQLFVYGGCDGNSNNYLTKEECLKKCATVTENATGDLATSRNAADSSVPSAPRRQDSEDHSSDMFNYEEYCTANAVTGPCRASFPRWYFDVERNSCNNFIYGGCRGNKNSYRSEEACMLRCFRQQENPPLPLGSKVVVLAGLFVMVLILFLGASMVYLIRVARRNQERALRTVWSSGDDKEQLVKNTYVL	–	potently inhibit prostasin activity	–
–	–	sHAI-1B K401A: KD2 mutant of sHAI-1B, P1 residue Lys401 (in KD2) changed to Ala (protein) GPPPAPPGLPAGADCLNSFTAGVPGFVLDTNASVSNGATFLESPTVRRGWDCVRACCTTQNCNLALVELQPDRGEDAIAACFLINCLYEQNFVCKFAPREGFINYLTREVYRSYRQLRTQGFGGSGIPKAWAGIDLKVQPQEPLVLKDVENTDWRLLRGDTDVRVERKDPNQVELWGLKEGTYLFQLTVTSSDHPEDTANVTVTVLSTKQTEDYCLASNKVGRCRGSFPRWYYDPTEQICKSFVYGGCLGNKNNYLREEECILACRGVQGGPLRGSSGAQATFPQGPSMERRHPVCSGTCQPTQFRCSNGCCIDSFLECDDTPNCPDASDEAACEKYTSGFDELQRIHFPSDKGHCVDLPDTGLCAESIPRWYYNPFSEHCARFTYGGCYGNKNNFEEEQQCLESCRGISKKDVFGLRREIPIPSTGSVE	inhibitory potency comparable to the wildtype	–	still formed an 85 kDa complex with prostasin
–	at least 18 fold	sHAI-1B R260A: KD1 mutant of sHAI-1B, P1 residue Arg260 (in KD1) changed to Ala (protein) GPPPAPPGLPAGADCLNSFTAGVPGFVLDTNASVSNGATFLESPTVRRGWDCVRACCTTQNCNLALVELQPDRGEDAIAACFLINCLYEQNFVCKFAPREGFINYLTREVYRSYRQLRTQGFGGSGIPKAWAGIDLKVQPQEPLVLKDVENTDWRLLRGDTDVRVERKDPNQVELWGLKEGTYLFQLTVTSSDHPEDTANVTVTVLSTKQTEDYCLASNKVGRCAGSFPRWYYDPTEQICKSFVYGGCLGNKNNYLREEECILACRGVQGGPLRGSSGAQATFPQGPSMERRHPVCSGTCQPTQFRCSNGCCIDSFLECDDTPNCPDASDEAACEKYTSGFDELQRIHFPSDKGHCVDLPDTGLCKESIPRWYYNPFSEHCARFTYGGCYGNKNNFEEEQQCLESCRGISKKDVFGLRREIPIPSTGSVE	–	–	did not
